Data published in publication PMC4824355, “Translocator Protein-Mediated Stabilization of Mitochondrial Architecture during Inflammation Stress in Colonic Cells” (PLoS ONE, 2016).
“And” between values parts separate entries of the source, which are not always exact repeats. Equal values may be shown once.

Biological target: the molecule itself
Test: SDS-PAGE and immunoblot of detergent-solubilised mitochondrial membranes; HT-29 mitochondrial membranes solubilised in SDS or 0.1% DDM, 4%-12% Tris-glycine SDS-PAGE, anti-TSPO blot; cells untreated or treated with 10 ng/mL TNF, 1 uM PK 11195 or both for 24, 48 or 72 h

B1: translocator protein (18 kDa; tryptophan-rich sensory protein oxygen sensor, TSPO) (natural protein, human (endogenous in HT-29), UniProt P30536 1-169, looked up)
chain: MAPPWVPAMGFTLAPSLGCFVGSRFVHGEGLRWYAGLQKPSWHPPHWVLGPVWGTLYSAMGYGSYLVWKELGGFTEKAVVPLGLYTGQLALNWAWPPIFFGARQMGWALVDLLLVSGAAAATTVAWYQVSPLAARLLYPYLAWLAFTTTLNYCVWRDNHGWRGGRRLPE
notes: translocator protein (18 kDa), TSPO, human, endogenous in HT-29 colon carcinoma cells; Seen as monomer, dimer and trimer bands on an anti-TSPO blot; also called peripheral-type benzodiazepine receptor; mitochondrial translocator protein; source: endogenous, HT-29 mitochondrial membranes solubilised with SDS or 0.1% DDM
B1 was tested, and the “stoichiometry N” value was 3 and 2.
